Measured values taken from patent US20140328762A1, “Fluorogenic Peptide Probes and Assays” (priority 2011, published 2014).

Tests used:
E3 peptide [1] = target: T1, E3 peptide; assay: CD spectra analysis, curve fitting (data not shown)
T1 chain: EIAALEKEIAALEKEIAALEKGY

E3 peptide [2] = target: T1, E3 peptide; assay: Kd of the beacon (fluorescence) compared with Kd of unlabeled K3-b1b3 (CD), both for E3
E3 peptide [3] = target: T1, E3 peptide; assay: fluorescence at 580 nm, 100 nM beacon, 10 µM partner (FIG. 14A, column E)
[4] = target: FosLZ (MBP-FosLZ, fusion protein of MBP and the cFos leucine zipper) [MBP: P0AEX9]; assay: fluorescence at 580 nm, 100 nM beacon, 10 µM partner (FIG. 14A, column C)
E3 peptide [5] = target: T1, E3 peptide; assay: fluorescence titration of 10 nM beacon with E3 peptide, curve fitting
[6] = target: unlabeled GCN4 244 (yeast); assay: fluorescence at 580 nm, 100 nM beacon, 10 µM partner (FIG. 14A, column D)
E3 peptide [7] = target: T1, E3 peptide; assay: fluorescence titration of 1 µM beacon with E3 peptide
E3 peptide [8] = target: T1, E3 peptide; assay: fluorescence titration of 1 µM beacon with E3 peptide, curve fitting
[9] = target: unlabeled JunLZ-Lb1b4 [MBP: P0AEX9]; assay: fluorescence at 580 nm, 100 nM beacon, 10 µM partner (FIG. 14A, column B)
[10] = target: T2, full length human XRCC4 protein (recombinant, E. coli) (human), Q13426; assay: fluorescence of 2 µM beacon with increasing concentration of XRCC4 (FIG. 8)
T2 sequence (Q13426 whole entry): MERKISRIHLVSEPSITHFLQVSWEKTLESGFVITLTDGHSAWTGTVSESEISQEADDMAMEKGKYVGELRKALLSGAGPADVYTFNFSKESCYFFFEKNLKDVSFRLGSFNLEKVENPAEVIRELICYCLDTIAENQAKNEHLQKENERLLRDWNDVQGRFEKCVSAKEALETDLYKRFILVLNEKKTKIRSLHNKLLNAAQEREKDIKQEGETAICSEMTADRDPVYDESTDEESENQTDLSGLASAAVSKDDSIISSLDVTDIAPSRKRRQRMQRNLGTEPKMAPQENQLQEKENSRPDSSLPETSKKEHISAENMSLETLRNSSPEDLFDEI

[11] = target: T2, full length human XRCC4 protein …; assay: absorbance spectra, 1 µM beacon, 40 µM protein; beacon only 0.40 (FIG. 7)
[12] = target: truncated XRCC4 protein that does not have DNA ligase IV binding site (recombinant, E. coli) (human), Q13426; assay: as above
Sequence of truncated XRCC4 protein that does not have DNA ligase IV binding site (recombinant, E. coli) (human), Q13426 (Q13426 2-150 limits assumed): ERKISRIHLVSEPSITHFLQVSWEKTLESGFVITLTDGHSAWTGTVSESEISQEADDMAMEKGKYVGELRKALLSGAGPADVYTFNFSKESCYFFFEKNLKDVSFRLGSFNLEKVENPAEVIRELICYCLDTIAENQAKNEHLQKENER

B1: K3-b1b3 peptide (unlabeled) (peptide)
peptide: KICALKAKIAALKAKICALKAGY
modifications: not checked
E3 peptide [1]
  Kd: 45 nM

B2: K3-b1b3 beacon (peptide)
peptide: KICALKAKIAALKAKICALKAGY
modifications: not checked
E3 peptide [2]
  fold decrease of binding affinity against unlabeled K3-b1b3: 17 fold
E3 peptide [3]
  fluorescence enhancement over beacon only: 7 fold
[4]
  fluorescence enhancement over beacon only: 1.6 fold
E3 peptide [5]
  Kd: 738 nM
[6]
  fluorescence enhancement over beacon only: 1.2 fold
E3 peptide [7]
  maximum fluorescence enhancement: 12 fold
E3 peptide [8]
  Kd: 766 nM
[9]
  fluorescence enhancement over beacon only: 1.5 fold

B3: LigIV-C1 peptide beacon (peptide)
peptide: CREYDSYGDSYFIDTDLNQLKEVFSGIKCG
modifications: not checked
[10]
  fluorescence enhancement: 9.5 fold
[11]
  A550/A520 ratio: 0.46
[12]
  A550/A520 ratio: 0.38
